Molecular target: T1, CD3 epsilon homodimer protein (UniProt P07766 23-126)
T1 construct: also called CD3 (CD3 epsilon)
Assay: SPR Biacore T200, CD3e homodimer on chip, vs unaltered GLS3000 antibody
Description: An appropriate amount of CD3 epsilon homodimer protein was immobilized onto Sensor chip CM4 (GE Healthcare Japan Corp.) by the amine coupling method. Then, the antibody having an appropriate concentration was injected thereto as an analyte and allowed to interact with the CD3 epsilon homodimer protein on the sensor chip. Then, the sensor chip was regenerated by the injection of 10 mmol/L glycine-HCl (pH 1.5). The assay was conducted at 25 degrees C., and HBS-EP+(GE Healthcare Japan Corp.) was used as a running buffer. […] Each parameter was calculated using Biacore T200 Evaluation Software (GE Healthcare Japan Corp.).

T1 sequence (P07766 23-126): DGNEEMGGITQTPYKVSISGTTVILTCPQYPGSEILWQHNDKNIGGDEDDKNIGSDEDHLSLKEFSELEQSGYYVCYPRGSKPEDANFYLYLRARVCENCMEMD

| ratio of amounts bound (Z=Y/X) | Binder |
| --- | --- |
| 0.36 | GLS3000 N28P (antibody, name in Kabat numbering, V domains shown, one-arm IgG as m2) VH: QVQLVESGGGVVQPGRSLRLSCAASGFTFSNAWMHWVRQAPGKGLEWVAQIKAKSNNYATYYAESVKGRFTISRDDSKNSLYLQMNSLKTEDTAVYYCRYVHYGAYYGVDAWGQGTTVTVSS VL: DIVMTQSPLSLPVTPGEPASISCRSSQSLVHSPRNTYLHWYQQKPGQAPRLLIYKVSNRFSGVPDRFSGSGSGTDFTLKISRVEAEDVGVYYCGQGTQVPYTFGQGTKLEIK |
| 0.31 | GLS3000 N30P (antibody, name in Kabat numbering, V domains shown, one-arm IgG as m2) VH: QVQLVESGGGVVQPGRSLRLSCAASGFTFSNAWMHWVRQAPGKGLEWVAQIKAKSNNYATYYAESVKGRFTISRDDSKNSLYLQMNSLKTEDTAVYYCRYVHYGAYYGVDAWGQGTTVTVSS VL: DIVMTQSPLSLPVTPGEPASISCRSSQSLVHSNRPTYLHWYQQKPGQAPRLLIYKVSNRFSGVPDRFSGSGSGTDFTLKISRVEAEDVGVYYCGQGTQVPYTFGQGTKLEIK |
| 0.41 | GLS3000 N28W (antibody, name in Kabat numbering, V domains shown, one-arm IgG as m2) VH: QVQLVESGGGVVQPGRSLRLSCAASGFTFSNAWMHWVRQAPGKGLEWVAQIKAKSNNYATYYAESVKGRFTISRDDSKNSLYLQMNSLKTEDTAVYYCRYVHYGAYYGVDAWGQGTTVTVSS VL: DIVMTQSPLSLPVTPGEPASISCRSSQSLVHSWRNTYLHWYQQKPGQAPRLLIYKVSNRFSGVPDRFSGSGSGTDFTLKISRVEAEDVGVYYCGQGTQVPYTFGQGTKLEIK |
| 1.65 | GLS3000 N30K (antibody, name in Kabat numbering, V domains shown, one-arm IgG as m2) VH: QVQLVESGGGVVQPGRSLRLSCAASGFTFSNAWMHWVRQAPGKGLEWVAQIKAKSNNYATYYAESVKGRFTISRDDSKNSLYLQMNSLKTEDTAVYYCRYVHYGAYYGVDAWGQGTTVTVSS VL: DIVMTQSPLSLPVTPGEPASISCRSSQSLVHSNRKTYLHWYQQKPGQAPRLLIYKVSNRFSGVPDRFSGSGSGTDFTLKISRVEAEDVGVYYCGQGTQVPYTFGQGTKLEIK |
| 0.8 | GLS3000 N30M (antibody, name in Kabat numbering, V domains shown, one-arm IgG as m2) VH: QVQLVESGGGVVQPGRSLRLSCAASGFTFSNAWMHWVRQAPGKGLEWVAQIKAKSNNYATYYAESVKGRFTISRDDSKNSLYLQMNSLKTEDTAVYYCRYVHYGAYYGVDAWGQGTTVTVSS VL: DIVMTQSPLSLPVTPGEPASISCRSSQSLVHSNRMTYLHWYQQKPGQAPRLLIYKVSNRFSGVPDRFSGSGSGTDFTLKISRVEAEDVGVYYCGQGTQVPYTFGQGTKLEIK |
| 0.47 | GLS3000 N30G (antibody, name in Kabat numbering, V domains shown, one-arm IgG as m2) VH: QVQLVESGGGVVQPGRSLRLSCAASGFTFSNAWMHWVRQAPGKGLEWVAQIKAKSNNYATYYAESVKGRFTISRDDSKNSLYLQMNSLKTEDTAVYYCRYVHYGAYYGVDAWGQGTTVTVSS VL: DIVMTQSPLSLPVTPGEPASISCRSSQSLVHSNRGTYLHWYQQKPGQAPRLLIYKVSNRFSGVPDRFSGSGSGTDFTLKISRVEAEDVGVYYCGQGTQVPYTFGQGTKLEIK |
| 0.61 | GLS3000 N30I (antibody, name in Kabat numbering, V domains shown, one-arm IgG as m2) VH: QVQLVESGGGVVQPGRSLRLSCAASGFTFSNAWMHWVRQAPGKGLEWVAQIKAKSNNYATYYAESVKGRFTISRDDSKNSLYLQMNSLKTEDTAVYYCRYVHYGAYYGVDAWGQGTTVTVSS VL: DIVMTQSPLSLPVTPGEPASISCRSSQSLVHSNRITYLHWYQQKPGQAPRLLIYKVSNRFSGVPDRFSGSGSGTDFTLKISRVEAEDVGVYYCGQGTQVPYTFGQGTKLEIK |
| 0.37 | GLS3000 N28Q (antibody, name in Kabat numbering, V domains shown, one-arm IgG as m2) VH: QVQLVESGGGVVQPGRSLRLSCAASGFTFSNAWMHWVRQAPGKGLEWVAQIKAKSNNYATYYAESVKGRFTISRDDSKNSLYLQMNSLKTEDTAVYYCRYVHYGAYYGVDAWGQGTTVTVSS VL: DIVMTQSPLSLPVTPGEPASISCRSSQSLVHSQRNTYLHWYQQKPGQAPRLLIYKVSNRFSGVPDRFSGSGSGTDFTLKISRVEAEDVGVYYCGQGTQVPYTFGQGTKLEIK |
| 0.45 | GLS3000 N28T (antibody, name in Kabat numbering, V domains shown, one-arm IgG as m2) VH: QVQLVESGGGVVQPGRSLRLSCAASGFTFSNAWMHWVRQAPGKGLEWVAQIKAKSNNYATYYAESVKGRFTISRDDSKNSLYLQMNSLKTEDTAVYYCRYVHYGAYYGVDAWGQGTTVTVSS VL: DIVMTQSPLSLPVTPGEPASISCRSSQSLVHSTRNTYLHWYQQKPGQAPRLLIYKVSNRFSGVPDRFSGSGSGTDFTLKISRVEAEDVGVYYCGQGTQVPYTFGQGTKLEIK |
| 0.7 | GLS3000 N30L (antibody, name in Kabat numbering, V domains shown, one-arm IgG as m2) VH: QVQLVESGGGVVQPGRSLRLSCAASGFTFSNAWMHWVRQAPGKGLEWVAQIKAKSNNYATYYAESVKGRFTISRDDSKNSLYLQMNSLKTEDTAVYYCRYVHYGAYYGVDAWGQGTTVTVSS VL: DIVMTQSPLSLPVTPGEPASISCRSSQSLVHSNRLTYLHWYQQKPGQAPRLLIYKVSNRFSGVPDRFSGSGSGTDFTLKISRVEAEDVGVYYCGQGTQVPYTFGQGTKLEIK |
| 1.1 | GLS3000 N30F (antibody, name in Kabat numbering, V domains shown, one-arm IgG as m2) VH: QVQLVESGGGVVQPGRSLRLSCAASGFTFSNAWMHWVRQAPGKGLEWVAQIKAKSNNYATYYAESVKGRFTISRDDSKNSLYLQMNSLKTEDTAVYYCRYVHYGAYYGVDAWGQGTTVTVSS VL: DIVMTQSPLSLPVTPGEPASISCRSSQSLVHSNRFTYLHWYQQKPGQAPRLLIYKVSNRFSGVPDRFSGSGSGTDFTLKISRVEAEDVGVYYCGQGTQVPYTFGQGTKLEIK |
| 0.29 | GLS3000 N30S (antibody, name in Kabat numbering, V domains shown, one-arm IgG as m2) VH: QVQLVESGGGVVQPGRSLRLSCAASGFTFSNAWMHWVRQAPGKGLEWVAQIKAKSNNYATYYAESVKGRFTISRDDSKNSLYLQMNSLKTEDTAVYYCRYVHYGAYYGVDAWGQGTTVTVSS VL: DIVMTQSPLSLPVTPGEPASISCRSSQSLVHSNRSTYLHWYQQKPGQAPRLLIYKVSNRFSGVPDRFSGSGSGTDFTLKISRVEAEDVGVYYCGQGTQVPYTFGQGTKLEIK |
| 0.26 | GLS3000 N28Y (antibody, name in Kabat numbering, V domains shown, one-arm IgG as m2) VH: QVQLVESGGGVVQPGRSLRLSCAASGFTFSNAWMHWVRQAPGKGLEWVAQIKAKSNNYATYYAESVKGRFTISRDDSKNSLYLQMNSLKTEDTAVYYCRYVHYGAYYGVDAWGQGTTVTVSS VL: DIVMTQSPLSLPVTPGEPASISCRSSQSLVHSYRNTYLHWYQQKPGQAPRLLIYKVSNRFSGVPDRFSGSGSGTDFTLKISRVEAEDVGVYYCGQGTQVPYTFGQGTKLEIK |
| 0.36 | GLS3000 N28V (antibody, name in Kabat numbering, V domains shown, one-arm IgG as m2) VH: QVQLVESGGGVVQPGRSLRLSCAASGFTFSNAWMHWVRQAPGKGLEWVAQIKAKSNNYATYYAESVKGRFTISRDDSKNSLYLQMNSLKTEDTAVYYCRYVHYGAYYGVDAWGQGTTVTVSS VL: DIVMTQSPLSLPVTPGEPASISCRSSQSLVHSVRNTYLHWYQQKPGQAPRLLIYKVSNRFSGVPDRFSGSGSGTDFTLKISRVEAEDVGVYYCGQGTQVPYTFGQGTKLEIK |
| 0.32 | GLS3000 N28S (antibody, name in Kabat numbering, V domains shown, one-arm IgG as m2) VH: QVQLVESGGGVVQPGRSLRLSCAASGFTFSNAWMHWVRQAPGKGLEWVAQIKAKSNNYATYYAESVKGRFTISRDDSKNSLYLQMNSLKTEDTAVYYCRYVHYGAYYGVDAWGQGTTVTVSS VL: DIVMTQSPLSLPVTPGEPASISCRSSQSLVHSSRNTYLHWYQQKPGQAPRLLIYKVSNRFSGVPDRFSGSGSGTDFTLKISRVEAEDVGVYYCGQGTQVPYTFGQGTKLEIK |
| 0.34 | GLS3000 N30D (antibody, name in Kabat numbering, V domains shown, one-arm IgG as m2) VH: QVQLVESGGGVVQPGRSLRLSCAASGFTFSNAWMHWVRQAPGKGLEWVAQIKAKSNNYATYYAESVKGRFTISRDDSKNSLYLQMNSLKTEDTAVYYCRYVHYGAYYGVDAWGQGTTVTVSS VL: DIVMTQSPLSLPVTPGEPASISCRSSQSLVHSNRDTYLHWYQQKPGQAPRLLIYKVSNRFSGVPDRFSGSGSGTDFTLKISRVEAEDVGVYYCGQGTQVPYTFGQGTKLEIK |
| 0.5 | GLS3000 N30A (antibody, name in Kabat numbering, V domains shown, one-arm IgG as m2) VH: QVQLVESGGGVVQPGRSLRLSCAASGFTFSNAWMHWVRQAPGKGLEWVAQIKAKSNNYATYYAESVKGRFTISRDDSKNSLYLQMNSLKTEDTAVYYCRYVHYGAYYGVDAWGQGTTVTVSS VL: DIVMTQSPLSLPVTPGEPASISCRSSQSLVHSNRATYLHWYQQKPGQAPRLLIYKVSNRFSGVPDRFSGSGSGTDFTLKISRVEAEDVGVYYCGQGTQVPYTFGQGTKLEIK |
| 0.87 | GLS3000 N30Q (antibody, name in Kabat numbering, V domains shown, one-arm IgG as m2) VH: QVQLVESGGGVVQPGRSLRLSCAASGFTFSNAWMHWVRQAPGKGLEWVAQIKAKSNNYATYYAESVKGRFTISRDDSKNSLYLQMNSLKTEDTAVYYCRYVHYGAYYGVDAWGQGTTVTVSS VL: DIVMTQSPLSLPVTPGEPASISCRSSQSLVHSNRQTYLHWYQQKPGQAPRLLIYKVSNRFSGVPDRFSGSGSGTDFTLKISRVEAEDVGVYYCGQGTQVPYTFGQGTKLEIK |
| 1.86 | GLS3000 N30R (antibody, name in Kabat numbering, V domains shown, one-arm IgG as m2) VH: QVQLVESGGGVVQPGRSLRLSCAASGFTFSNAWMHWVRQAPGKGLEWVAQIKAKSNNYATYYAESVKGRFTISRDDSKNSLYLQMNSLKTEDTAVYYCRYVHYGAYYGVDAWGQGTTVTVSS VL: DIVMTQSPLSLPVTPGEPASISCRSSQSLVHSNRRTYLHWYQQKPGQAPRLLIYKVSNRFSGVPDRFSGSGSGTDFTLKISRVEAEDVGVYYCGQGTQVPYTFGQGTKLEIK |
| 0.98 | GLS3000 N30H (antibody, name in Kabat numbering, V domains shown, one-arm IgG as m2) VH: QVQLVESGGGVVQPGRSLRLSCAASGFTFSNAWMHWVRQAPGKGLEWVAQIKAKSNNYATYYAESVKGRFTISRDDSKNSLYLQMNSLKTEDTAVYYCRYVHYGAYYGVDAWGQGTTVTVSS VL: DIVMTQSPLSLPVTPGEPASISCRSSQSLVHSNRHTYLHWYQQKPGQAPRLLIYKVSNRFSGVPDRFSGSGSGTDFTLKISRVEAEDVGVYYCGQGTQVPYTFGQGTKLEIK |
| 0.44 | GLS3000 N30E (antibody, name in Kabat numbering, V domains shown, one-arm IgG as m2) VH: QVQLVESGGGVVQPGRSLRLSCAASGFTFSNAWMHWVRQAPGKGLEWVAQIKAKSNNYATYYAESVKGRFTISRDDSKNSLYLQMNSLKTEDTAVYYCRYVHYGAYYGVDAWGQGTTVTVSS VL: DIVMTQSPLSLPVTPGEPASISCRSSQSLVHSNRETYLHWYQQKPGQAPRLLIYKVSNRFSGVPDRFSGSGSGTDFTLKISRVEAEDVGVYYCGQGTQVPYTFGQGTKLEIK |

From US20210388087A1 (Chugai, published 2021)
